Assay results: publication PMC4817975 (PLoS ONE, 2016)
Like-named read-outs stand apart in the source and are kept apart here.

Experiments:
[1] = biological target: T1, Human kappa opioid receptor (KOR) (Homo sapiens, UniProt P41145); experiment: Time-resolved SPA stability assay of high-affinity [3H]-DPN binding; details: for τ1, exponential time constant: exponential decay fit; for N1, initial active receptor population: exponential decay fit (single for DDM, double for Nanodiscs)
T1 construct: made in house; host or cells: Pichia pastoris
Method: All procedures were performed on ice or at 4°C until assay counting was initiated at room temperature (23°C). Time-resolved stability assay with detergent-extracted MPs was carried out directly after solubilization in binding buffer I (20 mM Tris-HCl, pH 7.4, 500 mM NaCl, 5% glycerol, 1 mM PMSF, 0.1 mM TCEP, 0.4% BSA). Solubilized proteins were diluted in the assay resulting in a final concentration of 0.1% DDM in the assay buffer. Stability assays performed with KOR reconstituted in Nanodiscs were done in binding buffer II (20 mM Tris-HCl pH 7.4, 100 mM NaCl pH 7.4, 0.4% BSA). KOR/Nanodisc samples were added at quantities corresponding to approximately 30 fmol/well. Samples were mixed with 0.5 mg/well yttrium silicate (YSi) streptavidin coated SPA beads (Perkin Elmer) in binding buffer and a final concentrations of 10 nM [^3H]-DPN (42.3 Ci/mmol, Perkin Elmer) in a total volume of 200 μl. In parallel, the non-specific binding was measured including 50 μM naloxone in the assay. All measurements were performed in triplicates in a white-wall clear-bottom 96-well plate (Wallac). The assay was gently shaken on a vibrating platform at 4°C for 1.5 hours to equilibrate ligand binding and immobilization of receptors on the SPA beads. After incubation the assay was counted with a liquid scintillation counter (Wallac Microbeta TriLux 1450, SPA cpm mode) repeatedly with 17 min between measurements at room temperature. As a control, the same assay conditions as described above were performed at RT and bound and free radioligands were separated at specific time points on Sephadex G-50 gravity-flow columns (GE Healthcare) equilibrated in binding buffer. After applying 50 μl of samples, columns were centrifuged for 2 min at 1000 x g. Separated samples were mixed with scintillation liquid and incubated for 1 hour at RT, before counting on a liquid scintillation counter. As data analysis, specific binding was normalized to the initial binding at time zero, corresponding to initiation of assay counting at RT. The half-life of high-affinity ligand binding was calculated from fitting to single or double exponential decay functions in Igor Pro 6.1.

[2] = biological target: T1, Human kappa opioid receptor (KOR); experiment: Radioligand filter binding assay (saturation), KOR in P. pastoris membranes; details: one-site model, read-out: KD, P.Pastoris membrane
Method: Specific ligand binding to KOR in P. pastoris membranes was measured by radioligand filter binding assay. Isolated P. pastoris membranes were diluted in binding buffer (50 mM Tris-HCl pH 7.4, 0.5 M NaCl, 1mg/ml BSA) and mixed in triplicates with radioligand [^3H]-diprenorpine (DPN, 42.3 Ci/mmol, Perkin Elmer) in concentrations varying from 0.08 to 10 nM in a 96 well plate (MultiScreen HTS-FC 1.2/0.65 μm glass fiber filter), which was pre-wetted in washing buffer (50 mM Tris-HCl buffer, pH 7.4). Non-specific binding was measured in parallel by including 50 μM naloxone. For each binding experiment, membranes corresponding to 3–5 μg/well were used keeping the ratio of bound radioligand <10% of the total added radioligand. The assay mixture was incubated for 2 h at room temperature. To separate bound from free ligands, the plate was rapidly filtrated and washed four times with 100 μl ice-cold washing buffer. Scintillation liquid (Ultima Gold XR, Perkin Elmer) was added to the wells and the assay was counted by a liquid scintillation counter (Wallac Microbeta TriLux 1450). Specific binding was calculated and KD was measured from saturation curves fitted to a one-site binding model using Igor Pro 6.1.

KOR = biological target: KOR; set-up: method as in PMID 22437504, PMID 15956349; details: literature value; cited from earlier work
[3] = biological target: T2, Human kappa opioid receptor (KOR) reconstituted in Nanodiscs (Homo sapiens, UniProt P41145); details: SPA saturation binding, one-site model
T2 construct: made in house; host or cells: Pichia pastoris (KOR)
Method: In parallel non-specific binding was measured in the presence of 50 μM naloxone. […] Therefore, saturation and inhibition binding assays were performed with reduced SPA beads/well; 0.25 mg/well of streptavidin-coated SPA YSI beads. […] Ki was measured from the IC50 value.

[4] = 10 nM [3H]-DPN, 23°C, double exponential fit

T1 sequence (P41145 whole entry): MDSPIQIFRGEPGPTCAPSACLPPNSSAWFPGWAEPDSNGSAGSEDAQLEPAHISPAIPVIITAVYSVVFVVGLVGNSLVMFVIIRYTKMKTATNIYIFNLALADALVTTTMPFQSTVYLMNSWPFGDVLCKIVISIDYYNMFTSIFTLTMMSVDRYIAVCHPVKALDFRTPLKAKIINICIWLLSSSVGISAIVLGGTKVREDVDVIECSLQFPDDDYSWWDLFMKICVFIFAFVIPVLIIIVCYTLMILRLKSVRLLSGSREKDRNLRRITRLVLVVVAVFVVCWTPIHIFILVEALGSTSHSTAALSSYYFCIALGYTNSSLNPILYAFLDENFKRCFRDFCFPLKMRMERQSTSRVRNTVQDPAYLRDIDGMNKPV
T2 sequence (P41145 whole entry): as above

Substance	τ1, exponential time constant ([1]; 10 nM [3H]-DPN, 23°C)	N1, initial active receptor population ([1]; 10 nM [3H]-DPN, 23°C)	time to complete loss of ligand binding activity ([1]; room temperature (23°C), 10 nM [3H]-DPN)	N2, initial active receptor population (slow component) [1, 4]	τ2, exponential time constant [1, 4]	N2, initial active receptor population (slow component) ([1]; 10 nM [3H]-DPN, 23°C, double exponential fit, listed as KOR reconstituted in Nanodiscs)	ligand binding relative to the initial activity after 100 minutes ([1]; after counting for 100 minutes at room temperature, n = 5)	stability improvement (Taverage in Nanodiscs vs half-life in DDM micelles) ([1]; from fitted curves)	Kd ([2]; listed as [^3H]-DPN)	Kd [2]	Kd (KOR)	Kd [3]	Kd ([3]; listed as [^3H]-DPN)
KOR in DDM micelles: human kappa opioid receptor solubilized in DDM/CHS, 0.1%/0.02% in the assay	0.4 ± 0.01 h	97.4 ± 1.5%	≤ 100 min	–	–	–	–	–	–	–	–	–	–
KOR in Nanodiscs: human kappa opioid receptor reconstituted in MSP1E3D1 Nanodiscs with POPC:POPG 3:2	1.2 ± 0.1 h	29.4 ± 0.8%	–	68.9 ± 0.7%	36.8 ± 1.6 h	68.9%	73.5 ± 2.5%	approximately 70 fold	–	–	–	–	–
diprenorpine [[3H]-DPN]	–	–	–	–	–	–	–	–	0.94 ± 0.14 nM	0.9 ± 0.1 nM	0.8 nM	0.8 ± 0.2 nM	0.84 ± 0.15 nM
